Test results from patent US20140294814A1 (SAMSUNG ELECTRONICS, published 2014).
Substitutions are numbered along the chain they refer to. In names and notes the source's numbering stands. Values belong to the binder of their own block, whether it stands above or below them.

Legend:
c-Met (NP_000236) [1] = molecular target: T1, c-Met (NP_000236) (human, UniProt P08581 25-932, limits assumed); experiment: estimated from several ELISAs, Fab
T1 construct: also called antigen

c-Met (NP_000236) [2] = molecular target: T1, c-Met (NP_000236); experiment: ratio of the KD of chAbF46 to the KD of the clone
c-Met (NP_000236) [3] = molecular target: T1, c-Met (NP_000236); experiment: method and reference clone not given
c-Met (NP_000236) [4] = molecular target: T1, c-Met (NP_000236); experiment: kinetic measurement, method and format not stated
human IgG1 Fc protein = molecular target: T2, human IgG1 Fc protein (human, UniProt P01857-1 100-330 = IgG part, limits assumed); experiment: ELISA, plate-coated human IgG1 Fc protein, hybridoma culture supernatant
T2 construct: domain: Fc; Counter-screen antigen in the hybridoma ELISA; also called human Fc protein; human Fc
Experimental: The hybridoma cell culture obtained in Example 1(2) was added in an amount of 50 μL to each well of the plates and incubated for 1 hour. The cells remaining unreacted were washed out with a sufficient amount of Tris-buffered saline and Tween 20 (TBST). Goat anti-mouse IgG-horseradish peroxidase (HRP) was added to the plates and incubated for 1 hour at room temperature. The plates were washed with a sufficient amount of TBST. A substrate (OPD) of the peroxidase was added thereto, allowing the substrate and the peroxidase to react. The reaction level was determined by measuring absorbance at 450 nm on an ELISA reader. Hybridoma cell lines which secrete antibodies that specifically and strongly bind to human c-Met protein but not human Fc were selected repeatedly.

T1 sequence (P08581 25-932 limits assumed): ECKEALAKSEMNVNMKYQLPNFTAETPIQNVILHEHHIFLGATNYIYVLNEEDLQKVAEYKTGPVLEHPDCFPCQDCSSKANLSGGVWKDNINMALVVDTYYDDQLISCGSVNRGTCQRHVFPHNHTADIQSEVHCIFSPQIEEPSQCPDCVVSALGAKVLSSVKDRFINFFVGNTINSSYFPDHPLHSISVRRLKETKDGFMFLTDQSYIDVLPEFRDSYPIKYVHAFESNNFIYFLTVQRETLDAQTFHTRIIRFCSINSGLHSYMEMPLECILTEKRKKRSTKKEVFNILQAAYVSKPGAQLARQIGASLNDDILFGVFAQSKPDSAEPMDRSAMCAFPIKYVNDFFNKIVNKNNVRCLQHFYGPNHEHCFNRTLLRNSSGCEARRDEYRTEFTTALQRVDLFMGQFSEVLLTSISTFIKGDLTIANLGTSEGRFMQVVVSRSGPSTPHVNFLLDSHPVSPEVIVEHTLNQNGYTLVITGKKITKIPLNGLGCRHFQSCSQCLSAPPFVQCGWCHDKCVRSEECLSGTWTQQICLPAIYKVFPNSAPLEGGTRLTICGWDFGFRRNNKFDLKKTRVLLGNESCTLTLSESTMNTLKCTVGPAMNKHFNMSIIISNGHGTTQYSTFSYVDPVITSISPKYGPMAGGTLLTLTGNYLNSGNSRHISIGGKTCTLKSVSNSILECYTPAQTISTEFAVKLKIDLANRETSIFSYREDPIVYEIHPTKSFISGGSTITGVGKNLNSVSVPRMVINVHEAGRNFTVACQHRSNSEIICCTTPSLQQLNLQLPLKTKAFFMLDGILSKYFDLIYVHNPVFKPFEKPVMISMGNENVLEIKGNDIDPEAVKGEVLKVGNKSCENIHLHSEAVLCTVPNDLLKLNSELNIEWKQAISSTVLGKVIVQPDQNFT

B2: clone L1bA (Fab) (Fab, V domains shown)
VH: EVQLVESGGGLVQPGGSLRLSCAASGFTFTDYYISWVRQAPGKGLEWVGFIRNKANGYTTEYSASVKGRFTISRDDSKNSLYLQMNSLKTEDTAVYYCARDNWFAYWGQGTLVTVSS
VL: DIVMTQSPLSLPVTPGEPASISCKSSQSLLAWGNQNNYLAWYLQKPGQSPQLLIYWASTRVSGVPDRFSGSGSGTDFTLKISRVEAEDVGVYYCQQSYSRPLTFGQGTKLEIKR
notes: L3E with S27->W (S27E->W) in CDR-L1; Fab with human kappa constant region and CH1 of human IgG1; also called LlbA
Kd (c-Met (NP_000236) [1]): ~0.3 nM | fold improvement in binding over the starting clone L3E (c-Met (NP_000236) [1]): ~100 fold | WT KD/Mutant KD (c-Met (NP_000236) [2]): 12.8 ratio

B4: antibody C28m (mutated C28) (Fab, V domains shown)
VH: B2 VH
VL: B2 VL with G33S, L52M, Y55I, S58I, S62G, L102Y
notes: C28 with L46M, Y49I and L96Y in VL; Described as an antibody fragment cloned into the same vector as the wild type
Kd (c-Met (NP_000236) [4]): < 0.01 nM | koff (c-Met (NP_000236) [4]): < 7.4e-05 s⁻¹ | kon (c-Met (NP_000236) [4]): 940000 M⁻¹ s⁻¹

B5: clone 1-F3 (Fab) (Fab, V domains shown)
VH: B2 VH
VL: B2 VL with L39A
notes: Clone from the combinatorial library; Fab with human kappa constant region and CH1 of human IgG1
fold enhancement of binding ability (c-Met (NP_000236) [3]): ~3 fold | WT KD/Mutant KD (c-Met (NP_000236) [2]): 8.8 ratio

B6: clone C28 (Fab) (Fab, V domains shown)
VH: B2 VH
VL: B2 VL with G33S, S58I, S62G
notes: as for B5
fold enhancement of binding ability (c-Met (NP_000236) [3]): ~3 fold | WT KD/Mutant KD (c-Met (NP_000236) [2]): 19.9 ratio

B7: chimeric clone of AbF46 (Fab) (Fab, V domains shown)
VH: EVKLVESGGGLVQPGGSLRLSCATSGFTFTDYYMSWVRQPPGKALEWLGFIRNKANGYTTEYSASVKGRFTISRDNSQSILYLQMDTLRAEDSATYYCARDNWFAYWGQGTLVTVSA
VL: DILMTQSPSSLTVSAGEKVTMSCKSSQSLLASGNQNNYLAWHQQKPGRSPKMLIIWASTRVSGVPDRFIGSGSGTDFTLTINSVQAEDLAVYYCQQSYSAPLTFGAGTKLELKR
notes: also called chAbF46
Kd (c-Met (NP_000236) [1]): ~4 nM | Kd (c-Met (NP_000236) [4]): 2.19 nM | koff (c-Met (NP_000236) [4]): 0.000723 s⁻¹ | kon (c-Met (NP_000236) [4]): 329000 M⁻¹ s⁻¹

The remaining lines, values ahead:

Kd (c-Met (NP_000236) [1]): ~30 nM
B1: clone L3E (Fab, V domains shown)
VH: B2 VH
VL: B2 VL with W32S

fold enhancement of binding ability (c-Met (NP_000236) [3]): ~3 fold | WT KD/Mutant KD (c-Met (NP_000236) [2]): 13.7 ratio
B3: clone C30 (Fab) (Fab, V domains shown)
VH: B2 VH
VL: B2 VL with N34F, S62G
notes: as for B5

binding result (human IgG1 Fc protein): no binding
B8: mouse antibody AbF46 (antibody, V domains shown)
VH: B7 VH
VL: B7 VL
notes: Mouse monoclonal antibody from a hybridoma; also called monoclonal antibody of hybridoma KCLRF-BP-00220
